The nature of this data set: soluble on expression in E. coli; label from the status in PepcDB or PDB records.
Take “MTPAQLTGTTDSHLQSTMVGQKAFLMHPDVANDLLNMIEAAKKAGFKMEIASGFRDFSRQRAIWNGKYEGELPILDSNSQPLNKAALSDEEKLKAILRWSALPGGSRHHWGCDFDVYARNLLPPDTKLQLEPWEYLEGHQLAFYCWLKDHIDEFGFFFPYLQDLGGVAIEPWHISHKAIGQQCAAQLNAEMLKDELVRQNQQHNIAGLESILNNLDSILSTYIRNITPPPEAL”: the “soluble on expression in E. coli” value is recorded as “not soluble”. As to “SKDFTWEVGYNITWNDSKITKLTTTFNPDYQGIDAGTNQKHQVGEMPGTFYLYQQVYDENGKPIQNAFVDRNNDGQITEADRYLTHKSPMAKVYMGFSSQFSYKKWDLGFNLRANFGNYVYNGVASGNSTSNNYGGKGFVTNLYNGFQDTGFTLLNTSEQMASDYFLENASFLKMDNITLGYSFQNLFAAKLSGRISASVQNVFTISKYSGLDPECGAIDSNIWPRPRTYTIGLNLNF”, the “soluble on expression in E. coli” value is given as “not soluble”. Consider “MGSDKIHHHHHHMSTNPSLPWHAGELALQARVGVAAKMEDVGRRVMRDYMPDQHREFFAQMPFVVLGTVAPDGRVWATLRAGRPGFLQSPDARILELRLPREAADPADAGMEDGQPLGLLGIDLMTRRRNRMNGVLRRADRDGADLRIDVVQSFGNCPRYIQQRAFRFTRDPSEQTTIAPLAMGALDSRARALIASADAFFVASYADRPEAGRQVDVSHRGGEPGFVRIDADGGLTIPDFAGNLFFNTLGNFMVNPAAGVTFADFDTGELLQMSGRVEVIVDSPEIAAFQGAERLWRFFPEKIVRREAALPMRWARAGDAADE”, for which the “soluble on expression in E. coli” value is “not soluble”. For “MGSDKIHHHHHHMRLRELELFLDLLATKSLTQSAERLGMSQPNASHLLSKLEEKGGSKLFDRSGKRLLPLSSALFLEPRAKEIVRLWREAQEELLDQSSLCGELRIAATHTIGEYLLPEILFEFRQTHPKVHLQARIHNTAECLEALLGGEVEQAFIEGETEDNQGVMKRFLRRDELAVVTSDEGLAARARYIDELFDRPWILREKGSGMRDAFLREVVDVKESFPLFLELDRSEAIKRLIQSHGALGCLSLLSVQREIKEGRLFRVEIIGREFWRHFYEVRREGSLGRLAKVFGEFVSVRLSESD”, the “soluble on expression in E. coli” value was “not soluble”.

For “MRKYAAIALCTSAILAGCNTSNVSQEPKKEKKVQEVAIQKEALQEQGKISYTPITHESTNTSIHITDLKDSLNEVQYKIWRTADGKERAKSFSSKEKEKQFTIPFDIKEFEGKRGEFQIEATGMKEDGKTIPLTKSIITFEQKVPVLMYHAIDDYHGQGIKDLFVSPANFEAQMKHLKDNGYTLLTFERWGDINKVNKPIFVTFDDGMKNNMNAFRVLQKLKDDTFKPAATEYMIVDNVDVEGALSTSEIKEMVDSGIFSVQSHTATHADLPKITNYEEELKGSKEKLEKITGKPVIAIAYPFGHVDDKVVTETKKYYQFATTTKPGQFITKGEPDELLKMKRVRIHHTTTVEQFASSIK”, the “soluble on expression in E. coli” value is “not soluble”. In the case of “MYRNFFSLSELPFSISPDPKYLFMSERHREALTHLTYGLGEVGGFALLTGEVGTGKTTISRCLMEQLPQNTQAAFILNPTLSCQELLATLCDQLKIRYRKTGASLKTLTDKISEKLLKNHENDINTLLIIDEAQHLQPEVLEQLRLLTNLETNTKKLLQVILIGQPELQQLLQRRDLRQL” it was “not soluble”; in that of “MAHHHHHHMTRPRLTSAPRGSALKEAISAHQALRNAVAQEQSALDDELKKNEQILAEHEQLMRDWSCDKEGVLATIQKMKEKIAENESKTTEARAEVKQNEEIVKRLHARNEEYEPRLEASAIEIAERLKKREEEEKEMREQLLTFQIACQEREQQYRDQIHKLEETNAQEAVDHQQKVQQLRSKIAEVEATMEEERRAWVVETEMRKQQRLIERHKFFTEEAEEARKGKEACAAIMKEASALRMDSNLLTSLDDLLCC”, “not soluble”. As for “MSLKSILIMGGSDFIGSALAKRLIKCGYQIDILTNGKKEIDYNGFKEHLICDRKVRKDMENIITGRKYDYIYDMTAYTKEDVSNLIDFISMDNLKKYIVLSAGAVYKDSGRNIKEENEKGENENWGKYGLNKKEAEDFIINSPIPYIIIRPTYIYGENNNLYREYYFFEKIEKNEKIPVPKGKQVSNQFIYIGDLVKVLESIMKNPHVREAYNVTNPQLISWDDLIYTCGEIIGKEPIIKYVDMEKVEFRERTYFPFRNIDFNLDINKLIEHGLYIPNVLLKEGLTATYKWFSANKPKMHDRKMNKVESVMQIEGHHHHHH”, the “soluble on expression in E. coli” value was “soluble”.

The values are drawn from the DeepSol protein solubility set.
